The values that follow come from patent US20240132603A1 (HARBOUR BIOMED US, published 2024).

For experiment [1], the target named is T1, human CCR8 (human, UniProt P51685 1-355).
T1 construct: whole, on cells; construct used for the overexpressing cell lines is not described; also called hCCR8
Briefly: FACS, CHO-K1-hCCR8 cells. On the procedure:
(§1) Cells overexpressing human CCR8 were digested with pancreatin, counted and resuspended to a cell density of 1E6 cells/mL. The cell suspension was added to a 96-well V-bottom plate at 100 μL/well and centrifuged at 300 g for 5 min, and the supernatant was discarded. The anti-CCR8 antibodies provided herein was used as a primary antibody and diluted in a 5-fold gradient with an FACS buffer (DPBS containing 2% FBS) from 200 nM. The diluted primary antibody was added at 100 μL/well to resuspend the cells, and the mixture was incubated at 4° C. for 1 h. The plate was washed twice with DPBS and centrifuged at 300×g for 5 min, and the supernatant was discarded. The secondary antibody diluted in a 1:1000 ratio with an FACS buffer was added at 100 μL/well to suspend the cells, and the mixture was incubated at 4° C. for 40 min. The plate was washed twice with DPBS and centrifuged at 300×g for 5 min, and the supernatant was discarded. DPBS was added at 200 μL/well to suspend the cells, and the mixture was loaded on an FACS machine for analysis.
(In general: Flow cytometry measures light scatter and fluorescence of single cells or particles in a stream.)

Experiment [2] has as its target T2, cynomolgus monkey CCR8 (cynomolgus monkey, UniProt G7NYJ2 1-355).
T2 construct: whole, on cells; also called CynoCCR8
Put plainly: FACS, CHO-K1-CynoCCR8 cells. How it is done:
as §1, with “cynomolgus monkey CCR8, CHO-K1-CynoCCR8,” for “human CCR8”

Experiment [3] concerns the target T2, cynomolgus monkey CCR8. Briefly: FACS, CHO-K1-CynoCCR8 cells. On the procedure: as §1, with “cynomolgus monkey CCR8, CHO-K1-CynoCCR8,” for “human CCR8”
The source holds these as a separate data set.

Experiment [4] has as its target T1, human CCR8. Put plainly: FACS, CHO-K1-hCCR8 cells. On the procedure:
as §1
This is another data set of the same source.

Experiment [5] deals with T1, human CCR8. Put plainly: FACS, Baf3-hCCR8 cells. How it is done: as §1
Experiment [6] deals with T1, human CCR8. Put plainly: FACS, HEK293-hCCR8 cells. On the procedure:
as §1

Like-named read-outs stand apart in the source and are kept apart here.

One may read the EC50 as the concentration giving half of the maximal effect.

T2 sequence (G7NYJ2 entry or part of it): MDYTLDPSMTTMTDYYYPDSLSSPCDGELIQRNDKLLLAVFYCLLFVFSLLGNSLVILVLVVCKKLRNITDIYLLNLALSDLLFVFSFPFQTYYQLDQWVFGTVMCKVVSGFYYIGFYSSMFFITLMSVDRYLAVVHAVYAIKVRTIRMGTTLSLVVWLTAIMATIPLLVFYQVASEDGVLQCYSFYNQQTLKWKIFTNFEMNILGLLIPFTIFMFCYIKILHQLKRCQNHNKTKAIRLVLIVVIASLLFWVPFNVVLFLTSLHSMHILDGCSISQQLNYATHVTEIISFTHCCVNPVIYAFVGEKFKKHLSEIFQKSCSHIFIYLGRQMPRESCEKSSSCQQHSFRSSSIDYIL
T1 sequence (P51685 whole entry): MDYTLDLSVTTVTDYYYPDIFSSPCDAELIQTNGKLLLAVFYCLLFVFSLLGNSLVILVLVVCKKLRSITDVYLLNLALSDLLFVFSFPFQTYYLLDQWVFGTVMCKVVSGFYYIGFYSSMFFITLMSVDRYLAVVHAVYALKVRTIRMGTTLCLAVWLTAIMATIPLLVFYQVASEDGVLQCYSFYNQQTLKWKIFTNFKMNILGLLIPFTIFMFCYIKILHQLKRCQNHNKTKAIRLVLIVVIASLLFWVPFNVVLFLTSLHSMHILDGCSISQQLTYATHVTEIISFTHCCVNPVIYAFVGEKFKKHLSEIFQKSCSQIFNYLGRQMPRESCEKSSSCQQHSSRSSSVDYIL

B1: PR004519 (antibody, human IgG1, kappa, V domains shown)
VH: EVQLVESGGGLVKPGGSLRLSCAASGFTFNTYAMNWVRQAPGKGLEWVGRIRSKSNNYATYYADSVKDRFTISRDDSKSTLYLQMNSLKTEDTAVYYCVRGKENGNYYAMDFWGQGTTVTVSS
VL: DIVMTQSPLSLPVTPGEPASISCRSSKSLLHSNGKIYLYWFLQKPGQSPQLLIYRMSNLASGVPDRFSGSGSGTDFTLKISRVEAEDVGVYYCMQHLEYPLTFGQGTKLEIKR
notes: humanized variant of PR004128, IgG1 with DE mutation
Consider B1, for which the figures for the EC50 with human CCR8 [1] and with cynomolgus monkey CCR8 [2] were 0.67 nM and 4.17 nM, respectively.

B2: PR006161 (antibody, human IgG1, kappa, V domains shown)
VH: EVQLVESGGGLVKPGGSLRLSCAASGFTFSTYAMNWVRQAPGKGLEWVGRIRSKSNYYATYYADSVKDRFTISRDDSKSTLYLQMNSLKTEDTAVYYCVRGKEHGKYYAMDFWGQGTTVTVSS
VL: DIVMTQSPLSLPVTLGQPASISCRSSKSLLHSNAKIYLYWFQQRPGQSPRLLIYRMSNLASGVPDRFSGSGSGTDFTLKISRVEAEDVGVYYCMQHLEYPLTFGQGTKLEIKR
With B2, the EC50 in the experiment with cynomolgus monkey CCR8 [3] came out at 0.43 nM; with human CCR8 [4], 0.38 nM.

B3: PR006157 (antibody, human IgG1, kappa, V domains shown)
VH: EVQLVESGGGLVKPGGSLRLSCAASGFTFSTYAMNWVRQAPGKGLEWVGRIRSKSNYYATYYADSVKDRFTISRDDSKSTLYLQMNSLKTEDTAVYYCVRGKEIGNYYAMDFWGQGTTVTVSS
VL: DIVMTQSPLSLPVTLGQPASISCRSSKSLLHSNAKIYLYWFQQRPGQSPRLLIYRMSNLASGVPDRFSGSGSGTDFTLKISRVEAEDVGVYYCMQHLEYPLTFGQGTKLEIKR
In the case of B3, the EC50 stood at 0.42 nM in the experiment with cynomolgus monkey CCR8 [3] and 0.73 nM in the experiment with human CCR8 [4].

B4: PR005565AF (antibody, human IgG1, kappa)
heavy: not shown
light: DIVMTQSPLSLPVTLGQPASISCRSSKSLLHSNAKIYLYWFQQRPGQSPRLLIYRMSNLASGVPDRFSGSGSGTDFTLKISRVEAEDVGVYYCMQHLEYPLTFGQGTKLEIKRTVAAPSVFIFPPSDEQLKSGTASVVCLLNNFYPREAKVQWKVDNALQSGNSQESVTEQDSKDSTYSLSSTLTLSKADYEKHKVYACEVTHQGLSSPVTKSFNRGEC
modifications: afucosylated (AF) Fc glycan, produced with 2-fluoro peracetylated fucose
notes: also called PR005565F
Regarding B4, the results for the EC50 with cynomolgus monkey CCR8 [3] and in the experiment with human CCR8 [4] were 0.62 nM and 0.38 nM, respectively.

B5: PR004520 (antibody, human IgG1, kappa)
heavy: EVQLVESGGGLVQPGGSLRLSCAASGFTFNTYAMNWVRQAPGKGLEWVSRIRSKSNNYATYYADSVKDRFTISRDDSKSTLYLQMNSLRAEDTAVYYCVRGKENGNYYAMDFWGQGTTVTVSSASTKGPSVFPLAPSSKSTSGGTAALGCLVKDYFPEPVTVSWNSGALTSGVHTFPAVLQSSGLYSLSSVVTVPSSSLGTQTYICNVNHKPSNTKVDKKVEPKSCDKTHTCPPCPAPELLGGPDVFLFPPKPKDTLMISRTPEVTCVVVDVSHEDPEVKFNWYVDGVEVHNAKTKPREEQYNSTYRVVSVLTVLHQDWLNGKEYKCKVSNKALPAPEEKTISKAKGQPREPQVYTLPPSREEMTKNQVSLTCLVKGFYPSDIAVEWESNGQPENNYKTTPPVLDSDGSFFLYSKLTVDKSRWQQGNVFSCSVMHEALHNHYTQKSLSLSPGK
light: DIVMTQSPLSLPVTPGEPASISCRSSKSLLHSNGKIYLYWFLQKPGQSPQLLIYRMSNLASGVPDRFSGSGSGTDFTLKISRVEAEDVGVYYCMQHLEYPLTFGQGTKLEIKRTVAAPSVFIFPPSDEQLKSGTASVVCLLNNFYPREAKVQWKVDNALQSGNSQESVTEQDSKDSTYSLSSTLTLSKADYEKHKVYACEVTHQGLSSPVTKSFNRGEC
notes: as for B1
Regarding B5, the EC50 in the experiment with human CCR8 [1] was found to be 1.31 nM; with cynomolgus monkey CCR8 [2], 4.6 nM.

B6: PR004669 (antibody, human IgG1, kappa)
heavy: not shown
light: DIVMTQSPLSLPVTLGQPASISCRSSKSLLHSNGKIYLYWFQQRPGQSPRLLIYRMSNLASGVPDRFSGSGSGTDFTLKISRVEAEDVGVYYCMQHLEYPLTFGQGTKLEIKRTVAAPSVFIFPPSDEQLKSGTASVVCLLNNFYPREAKVQWKVDNALQSGNSQESVTEQDSKDSTYSLSSTLTLSKADYEKHKVYACEVTHQGLSSPVTKSFNRGEC
notes: humanized; same VH/VL as PR004525, other heavy chain entry
For the molecule B6, the EC50 with human CCR8 [4] came out at 0.72 nM; with cynomolgus monkey CCR8 [2], 1.61 nM.

B7: PR006154 (antibody, human IgG1, kappa, V domains shown)
VH: EVQLVESGGGLVKPGGSLRLSCAASGFTFSTYAMNWVRQAPGKGLEWVGRIRSKSNNYATYYADSVKDRFTISRDDSKSTLYLQMNSLKTEDTAVYYCVRGKEHGNYYAMDFWGQGTTVTVSS
VL: DIVMTQSPLSLPVTLGQPASISCRSSKSLLHSNAKIYLYWFQQRPGQSPRLLIYRMSNLASGVPDRFSGSGSGTDFTLKISRVEAEDVGVYYCMQHLEYPLTFGQGTKLEIKR
Take B7: the EC50 in the experiment with cynomolgus monkey CCR8 [3] is 0.31 nM; with human CCR8 [4], 0.38 nM.

B8: PR006156 (antibody, human IgG1, kappa, V domains shown)
VH: EVQLVESGGGLVKPGGSLRLSCAASGFTFSTYAMNWVRQAPGKGLEWVGRIRSKSNNYATYYADSVKDRFTISRDDSKSTLYLQMNSLKTEDTAVYYCVRGKEIGNYYAMDFWGQGTTVTVSS
VL: DIVMTQSPLSLPVTLGQPASISCRSSKSLLHSNAKIYLYWFQQRPGQSPRLLIYRMSNLASGVPDRFSGSGSGTDFTLKISRVEAEDVGVYYCMQHLEYPLTFGQGTKLEIKR
As to B8, the values for the EC50 in the experiment with cynomolgus monkey CCR8 [3] and with human CCR8 [4] were 0.3 nM and 0.38 nM, respectively.

B9: PR004120 (antibody, human IgG1, kappa, V domains shown)
VH: EVQLVESGGGLVQPKGSLKLSCAASGFTFNTNAMNWVRQAPGKGLEWVARIRSKMNNYATYYADSVKDRFTISRDDSQNMLYLQMNNLKTEDTAMYYCVRGKENGNYYAMDFWGQGTSVTVSA
VL: DIVMTQAATSVLVTPGESVSISCRSSKSLLYSNGNTYLYWFLQRPGQSPQLLIYRMSNLASGVPDRFSGSGSGTAFTLRISRVEAEDVGVYYCMQHLEYPFTFGGGTKLEIKR
notes: chimeric, human IgG1 constant region
Regarding B9, the EC50 with human CCR8 [5] was 0.24 nM; with human CCR8 [6], 1.1 nM; in the experiment with human CCR8 [4], 0.54 nM.

B10: PR004124 (antibody, human IgG1, kappa, V domains shown)
VH: EVKVEESGGGLVQPGGSMKLSCAASGFTFNTYAMNWVRQAPGKGLEWVARIRSKSNNYATYYADSVKDRFTISRDDSQSMLYLQMNNLKTEDTAMYYCVRGKDYGNYYAMDFWGQGTSLTVSS
VL: DIVMTQDELSNPVTSGESVSISCRSSKSLLHSNGNTYLYWFLQRPGQSPQLLIYRMSNLASGVPDRFSGSGSGTAFTLRISRVEAEDVGVYYCMQHLEYPFTFGGGTKLELKR
notes: as for B9
Consider B10, for which the results for the EC50 with human CCR8 [5], with human CCR8 [6] and in the experiment with human CCR8 [4] were 0.17 nM, 0.58 nM and 0.45 nM, respectively.

B11: PR004129 (antibody, human IgG1, kappa, V domains shown)
VH: EVQLVESGGGLVQPKGSLKLSCAASGFTFNTYAMNWVRQAPGKGLEWVARIRSKSNNYATYYADSVKDRFTISRDDSQSMLYLQMNNLKTEDTAMYYCVRGKDYGNYYAMDYWGQGTSVTVSS
VL: DILLTQSPAILSVSPGERVSFSCRSSKSLLHSNGNTYLYWFLQRPGQSPQLLIYRMSNLASGVPDRFSGSGSGTAFTLRISRVEAEDVGVYYCMQHLEYPFTFGSGTKLEINR
notes: as for B9
With B11, the EC50 with human CCR8 [5] came to 0.06 nM; in the experiment with human CCR8 [6], 0.34 nM; with human CCR8 [4], 0.25 nM.

B12: PR004123 (antibody, human IgG1, kappa, V domains shown)
VH: EVQLVESGGGLVQPKGSLKLSCAASEFTFNTYAMNWVRQAPGKGLEWVARIRTKSNNFATYYADSVKDRFTISRDDSQSMLFLQMNNLKTEDTAMYYCVRGKENGNYYAMDFWGQGTSVTVSA
VL: DIVMTQAAPSVPVTPGESVSISCRSSKSLLHSNGNTYLYWFLQRPGQSPQLLIYRMSNLASGVPDRFSGSGSGTAFTLRISRVEAEDVGVYYCMQHLEYPFTFGGGTKLELKR
notes: as for B9
Consider B12, for which the EC50 with human CCR8 [5] worked out at 0.2 nM; with human CCR8 [6], 0.62 nM; with human CCR8 [4], 0.46 nM.

B13: PR004130 (antibody, human IgG1, kappa, V domains shown)
VH: EVQLVESGGGLVQFKGSLKLSCGTSGFTFNTYAMNWVRQAPGKGLEWVARIRSKSNNYATFYADSVKDRFTISRDDSQNMLYLQMNNLKTEDTAMYYCVRGKENGNYYAMDFWGQGTSVTVSS
VL: DIVMTQAAPSVPVTPGESVSISCRSSKSLLHSNGNTYLYWFLQRPGQSPQLLIYRMSNLASGVPDRFSGSGSGTAFTLRISRVEAEDVGVYYCMQHLEYPFTFGSGTKLEIKR
notes: as for B9
As for B13, the EC50 with human CCR8 [5] was found to be 0.2 nM; with human CCR8 [6] it was 0.8 nM; with human CCR8 [4] it was 0.46 nM.

B14: PR004126 (antibody, human IgG1, kappa, V domains shown)
VH: EVQLVESGGGLVQPKGSLKLSCAASGFTFSTNAMNWVRQAPGKGLEWVGRIRSKSNNYATYYADSVKDRFTISRDDSQSMLYLQMNNLKTEDTAMYYCVRGKENGNYYAMDFWGQGTSVTVSA
VL: DIVITQAAPSVPVTPGESVSISCRSSKSLLHSNGNTYLYWFLQRPGQSPQLLIYRMSNLASGVPDRFSGSGSGTAFTLRISRVEAEDVGVYYCMQHLEYPFTFGAGTKLELKR
notes: as for B9
Regarding B14, the EC50 in the experiment with human CCR8 [5] was 0.18 nM; in the experiment with human CCR8 [6], 0.58 nM; in the experiment with human CCR8 [4], 0.43 nM.

B15: PR004127 (antibody, human IgG1, kappa, V domains shown)
VH: EVQLVETGGGLVQPKGSLKLSCAASGFTFNTNAMNWVRQAPGKGLEWVARIRSKSNNYATYYADSVKDRFTISRDDSQNMLYLQMNNLKTEDTAMYYCVRGKENGNYYAMDFWGQGTSVTVSS
VL: DIVMTQAATSVLVTPGESVSISCRSSKSLLYSNGNTYLYWFLQRPGQSPQLLIYRMSNLASGVPDRFSGSGSGTAFTLRISRVEAEDVGVYYCMQHLEYPFTFGGGTKLEMKR
notes: as for B9
Turning to B15, the EC50 with human CCR8 [5] came out at 0.26 nM; with human CCR8 [6] it was 0.86 nM; in the experiment with human CCR8 [4], 0.56 nM.
